Measurements published in US9114109B2, “Five-coordinate neuroglobin and use thereof as a blood substitute” (University of Pittsburgh—Of the Commonwealth System of …, priority 2009, dated 2015).

Key:
[1] = Anaerobic reaction of deoxygenated globins with excess nitrite (nitrite reductase kinetics, absorption / stopped-flow spectroscopy); format: biochemical
Protocol: Oxygen contamination was prevented by application of positive argon pressure without a channel for gas escape. Concentrations of single species during reactions were determined by least squares deconvolution of the visible absorption spectrum into standard reference spectra using Microsoft Excel analysis. OxyNgb was included to confirm successful deoxygenation before the reaction. […] Fast kinetic studies were performed using an Applied Photophysics DX-17 stopped-flow instrument equipped with rapid-scanning diode array detection. […] To determine bimolecular rate constants all reactions were analyzed with Pro-K software (Applied Photophysics) using singular value decomposition followed by fitting of the reduced data matrix to a pseudo-first order kinetic model.

[2] = Determination of nitrite binding constants to met-Ngb (difference spectra titration); conditions: met-Ngb 10 μM, 200 mM phosphate buffer, pH 7.4, 25° C.; read-out: Kd (NO2^−)
Protocol: To determine the binding constant of nitrite to metNgb, 10 μM wild type and mutant Ngb in 200 mM phosphate buffer, pH 7.4, were incubated in a cuvette at 25° C. with increasing concentrations of nitrite and the UV—visible spectra were recorded after each increase in nitrite concentration. The constant KD for each protein was determined by interpolation of the absorbance data following procedures in Nicolis et al. (Biochem J 407:89-99, 2007).

[3] = Reaction of met-Ngb with nitrite to produce nitrosyl-Ngb (nitrite ferric heme reduction); format: biochemical; conditions: met-Ngb with nitrite in the presence of dithionite
[4] = EPR spectroscopy of iron-nitrosyl-heme formation from nitrite; format: biochemical; conditions: 1 mM nitrite
Protocol: Iron nitrosyl species were measured by EPR spectroscopy using a Bruker EMX 10/12 spectrometer operating at 9.4 GHz, 5-G modulation, 10.1-milliwatt power, 327.68-ms time constant and 163.84-s scan over 600 G at 110 K as described previously (Basu et al., J Biol Chem 283:32590-32597, 2008; Azarov et al., J. Biol. Chem. 280:[…], 2005). The concentrations of Mb and Ngb species were determined by performing the double integral calculation and comparing to standard samples.

[5] = Direct measurement of NO release in gas phase (chemiluminescence); format: biochemical
Excerpt: Once a stable baseline was established Ngb was reacted with a known amount of nitrite as previously described (Huang et al., J Clin Invest 115:2099-2107, 2005).

[6] = test system: isolated rat liver mitochondria; test: Hypoxic inhibition of respiration of isolated mitochondria; format: cell-based; conditions: 5 μM protein with 20 μM nitrite, hypoxia
Protocol: (§1) Mitochondria were isolated from the livers of male Sprague Dawley rats and incubated with wild-type or mutant Ngb proteins in a sealed, stirred chamber at 37° C. State 3 respiration was stimulated with succinate (15 mM) and ADP (1 mM) and oxygen consumption was measured with a Clark-type oxygen electrode. To measure inhibition of respiration in hypoxic conditions, respiring mitochondria were allowed to consume oxygen until the chamber became anoxic and then the chamber lid was removed to allow the diffusion of air back into the chamber. The rate of mitochondrial respiration was greater than the rate of oxygen entering the chamber such that the oxygen electrode trace remained at zero while the mitochondria were respiring. Nitrite was added to the chamber prior to the removal of the lid and deviation of the oxygen trace from a zero reading signified a decrease in respiration rate. All experiments were performed under conditions where substrates were not limiting. The extent of respiratory inhibition was quantified by measuring the time from equilibration of the mitochondria with air to the time when the oxygen trace deviated from zero. This time to inhibition was expressed as a percentage of maximal inhibition, where 100% inhibition was defined as the time to inhibition in the presence of cyanide and the time to the exhaustion of substrates was used as a measure of 0% inhibition. Similar experiments were performed with SHSY5Y cells suspended in the respirometer and treated with the uncoupler FCCP (5 μM) to measure hypoxic inhibition of cellular respiration.

SHSY5Y cells = test: Hypoxic inhibition of cellular respiration in SHSY5Y cells expressing Ngb; format: cell-based; conditions: cells stably transfected with GFP-tagged Ngb, nitrite added, FCCP
Protocol: as §1, with “Similar experiments were performed with SHSY5Y cells suspended in the respirometer and treated with the uncoupler FCCP (5 μM) to measure hypoxic inhibition of cellular respiration.” left out

SHSY5Y neuronal cells = test: Determination of cGMP in SHSY5Y neuronal cells under hypoxia; format: cell-based; conditions: 6 hours hypoxia (1% oxygen), no exogenous nitrite, cells expressing the protein
Protocol: SHSY5Y cells, expressing the GFP vector, wild type Ngb or H64L mutant Ngb were plated on Corning® CellBIND® Surface 100 mm culture dishes at a concentration of 5-7.5×10^5 cells/plate and grown to 80-90% confluence. After four days of growth, the cells were incubated for 6 hours under hypoxic conditions (1% oxygen). Following hypoxic treatment, the cGMP levels were measured using the cyclic GMP EIA Kit (Cayman Chemicals catalog #581021) according to the manufacturer's instructions. Protein levels were measured and used to normalize results.

BRC higher than the wild type Ngb ([1]; 100 μM nitrite, excess dithionite, relative to wild type): approximately 2000 fold
relative percentage of the total absorbance change (Soret peak 425 nm) in the first 60 minutes ([1]; 1 mM nitrite, 0.1 M HEPES pH 7.4, H64L-Ngb normalized to 100%): 100%
rate of nitrite reaction at acidic pH ([1]; pH 6.5 and 25° C.): above 2,500 M^−1 s^−1
nitrite reduction to NO, faster than wild type neuroglobin ([1]; relative to wild type): approximately 2000 times
Kd [2]: 170 ± 80 µM
B1: H64L: stable five-coordinate mutant of human neuroglobin, His64 to Leu substitution, SEQ ID NO: 9 (protein)
chain: MERPEPELIRQSWRAVSRSPLEHGTVLFARLFALEPDLLPLFQYNCRQFSSPEDCLSSPEFLDLIRKVMLVIDAAVTNVEDLSSLEEYLASLGRKHRAVGVKLSSFSTVGESLLYMLEKCLGPAFTPATRAAWSQLYGAVVQAMSRGWDGE
time to end point of the reaction (in words) ([1]; 1 mM nitrite, pH 7.4): reached the end point in the first minute
BRC from linear fit of kobs versus nitrite concentration (stopped-flow) ([1]; nitrite 10-1000 μM, 25° C., pH 7.4): 259 ± 8 M⁻¹ s⁻¹
BRC of nitrite ferric heme reduction [3]: 0.032 ± 0.002
completion of iron-nitrosyl formation by EPR (in words) [4]: almost complete in one minute
rate of iron-nitrosyl-Ngb / NO formation by EPR (in words) ([4]; 40±5 μM protein): dramatically increased the rate of NO formation
rate of NO detected in gas phase (in words) ([5]; 20 μM Ngb, 1 mM nitrite, anaerobic): increased
NO generation with increasing amounts of nitrite (in words) ([5]; 30 μM protein, nitrite 10-1000 μM): a readily proportional NO generation response was observed
inhibition of respiration (cyanide = 100%) [6]: 96±2%
extent of respiration inhibition compared to cyanide (SHSY5Y cells): ~40%
cGMP levels (in words) (SHSY5Y neuronal cells): significantly increased
